The values that follow come from patent US20130337438A1 (JAPAN HEALTH SCIENCES FOUNDATION, published 2013).

One assay deals with T1, HPV51 L1/L2-capsid (human papillomavirus type 51, UniProt P26539 1-468; P26536 1-504).
T1 construct: Capsid of co-expressed L1 and L2 from 293FT cells; The pseudovirus is the same capsid with a reporter plasmid; also called L1/L2-capsid of type 51; HPV51 pseudovirus
T1 sequence 1: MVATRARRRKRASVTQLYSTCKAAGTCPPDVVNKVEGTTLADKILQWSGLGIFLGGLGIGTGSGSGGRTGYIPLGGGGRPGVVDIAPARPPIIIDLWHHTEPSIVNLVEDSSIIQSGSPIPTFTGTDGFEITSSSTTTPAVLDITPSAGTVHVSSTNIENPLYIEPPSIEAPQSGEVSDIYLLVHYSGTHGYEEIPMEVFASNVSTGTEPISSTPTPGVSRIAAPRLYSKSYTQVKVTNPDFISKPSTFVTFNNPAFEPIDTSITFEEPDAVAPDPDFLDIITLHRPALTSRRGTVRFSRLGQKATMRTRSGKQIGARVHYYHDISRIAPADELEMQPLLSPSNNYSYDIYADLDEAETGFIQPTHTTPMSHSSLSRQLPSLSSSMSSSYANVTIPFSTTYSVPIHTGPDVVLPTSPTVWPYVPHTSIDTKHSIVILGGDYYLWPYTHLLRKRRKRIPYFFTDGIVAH
T1 sequence 2: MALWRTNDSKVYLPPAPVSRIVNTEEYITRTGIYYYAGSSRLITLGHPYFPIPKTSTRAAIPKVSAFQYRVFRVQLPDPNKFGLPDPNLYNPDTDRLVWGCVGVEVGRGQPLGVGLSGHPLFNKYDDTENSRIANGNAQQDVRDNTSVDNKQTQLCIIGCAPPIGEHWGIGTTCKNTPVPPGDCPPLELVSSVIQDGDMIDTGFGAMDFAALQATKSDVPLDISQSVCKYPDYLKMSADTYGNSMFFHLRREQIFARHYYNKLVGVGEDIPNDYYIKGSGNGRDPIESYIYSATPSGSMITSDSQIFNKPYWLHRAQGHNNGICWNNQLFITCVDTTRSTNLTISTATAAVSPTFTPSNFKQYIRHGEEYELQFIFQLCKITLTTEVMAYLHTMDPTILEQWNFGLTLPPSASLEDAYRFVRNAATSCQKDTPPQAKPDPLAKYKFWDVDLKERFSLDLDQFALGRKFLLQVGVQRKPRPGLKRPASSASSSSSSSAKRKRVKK
In words: ELISA on immobilized L1/L2-capsid, purified antibody 250 ng/well. In general terms: In an ELISA, binding on a coated surface is turned into a signal by an enzyme label.

A further assay concerns the target T2, HPV33 L1/L2-capsid (human papillomavirus type 33, UniProt P06418 1-467; P06416 1-499).
T2 construct: Capsid of co-expressed L1 and L2 from 293FT cells; The pseudovirus is the same capsid with a reporter plasmid; also called L1/L2-capsid of type 33; HPV33 pseudovirus
T2 sequence 1: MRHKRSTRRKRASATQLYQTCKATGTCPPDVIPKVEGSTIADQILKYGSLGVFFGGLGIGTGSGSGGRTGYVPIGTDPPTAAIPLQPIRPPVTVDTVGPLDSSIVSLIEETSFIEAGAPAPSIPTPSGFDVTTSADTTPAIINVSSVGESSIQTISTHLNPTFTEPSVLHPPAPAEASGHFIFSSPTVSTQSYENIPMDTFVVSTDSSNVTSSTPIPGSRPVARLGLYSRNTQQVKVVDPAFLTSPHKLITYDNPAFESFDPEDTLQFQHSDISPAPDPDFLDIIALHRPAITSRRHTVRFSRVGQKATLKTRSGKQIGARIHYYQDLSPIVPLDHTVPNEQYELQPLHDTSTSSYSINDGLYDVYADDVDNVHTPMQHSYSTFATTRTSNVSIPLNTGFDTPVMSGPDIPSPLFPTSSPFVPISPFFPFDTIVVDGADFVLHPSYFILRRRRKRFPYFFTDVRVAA
T2 sequence 2: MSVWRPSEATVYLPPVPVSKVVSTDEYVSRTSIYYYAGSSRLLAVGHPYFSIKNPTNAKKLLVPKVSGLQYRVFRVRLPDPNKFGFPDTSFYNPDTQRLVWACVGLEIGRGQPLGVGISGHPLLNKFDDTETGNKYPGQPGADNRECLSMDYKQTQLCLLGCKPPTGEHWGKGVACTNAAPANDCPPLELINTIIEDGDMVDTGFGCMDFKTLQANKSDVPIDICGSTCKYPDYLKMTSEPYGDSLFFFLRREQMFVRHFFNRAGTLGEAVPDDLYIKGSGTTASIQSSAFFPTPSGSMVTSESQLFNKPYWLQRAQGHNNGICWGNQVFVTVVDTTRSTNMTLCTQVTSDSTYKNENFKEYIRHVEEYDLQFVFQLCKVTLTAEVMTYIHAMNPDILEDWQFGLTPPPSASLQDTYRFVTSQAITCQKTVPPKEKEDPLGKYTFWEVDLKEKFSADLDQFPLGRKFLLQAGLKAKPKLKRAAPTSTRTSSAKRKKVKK
The description is as above.

B1: monoclonal antibody 13B (antibody, V domains shown)
VH: DVQLQESGPGLVKPSQSLSLSCTVTGYSITSDSAWNWIRQFPGNKLEWMGYITFSGSTNYNPSLKSRLSITRDTSKNQFFLQLNSVTTEDTATYYCTGPFLDYWGQGTTLTVSS
VL: DVVMTQTPLSLPVSLGDQATISCRSSLSLVLSNRITYLQWYLQKPGQSPKLLIYKVSNRFSGVPDRFSGSGSGTDFTLKISRVEAEDLGVYFCSQSSHFPWTFGGGTKLEIKR
notes: Used as mouse ascites or as antibody purified from ascites; also called Mouse-Mouse hybridoma 13B (FERM BP-11304)
Turning to B1, the binding result with HPV51 L1/L2-capsid and with HPV33 L1/L2-capsid was “binds” in each case.
